The values below come from patent US20190241657A1.

pKd: −log10 of the molar value.

For this test, the target named is human CD3epsilon/delta-Fc fusion protein (heterodimer of CD3epsilon and CD3delta extracellular domains fused to human IgG Fc) (human) (UniProt P04234). In words: Biacore.
Chain of human CD3epsilon/delta-Fc fusion protein (heterodimer of CD3epsilon and CD3delta extracellular domains fused to human IgG Fc) (human) (chain, as listed by the source mutant, chain 1 of 2): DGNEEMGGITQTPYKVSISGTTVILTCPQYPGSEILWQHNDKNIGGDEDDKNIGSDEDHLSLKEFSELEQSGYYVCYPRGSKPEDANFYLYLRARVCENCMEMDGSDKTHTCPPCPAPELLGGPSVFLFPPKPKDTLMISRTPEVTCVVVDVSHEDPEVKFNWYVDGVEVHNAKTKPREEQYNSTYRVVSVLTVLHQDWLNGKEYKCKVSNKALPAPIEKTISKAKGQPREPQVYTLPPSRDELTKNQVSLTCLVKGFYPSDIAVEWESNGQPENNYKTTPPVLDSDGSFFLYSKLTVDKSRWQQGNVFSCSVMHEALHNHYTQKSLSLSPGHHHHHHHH
Chain of human CD3epsilon/delta-Fc fusion protein (heterodimer of CD3epsilon and CD3delta extracellular domains fused to human IgG Fc) (human) (P04234 22-105, stated change not applied, chain 2 of 2): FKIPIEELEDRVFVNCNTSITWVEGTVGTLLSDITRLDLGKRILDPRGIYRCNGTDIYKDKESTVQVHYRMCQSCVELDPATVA

Broadly, the pKd is −log10 of the Kd, conventionally taken in molar units. A low value points to a high Kd. Regarding “Single chain antibody DART format MGD006 (CD123xCD3 bi-specific diabody) (bispecific antibody)”, the pKd is 8.05.
